{
  "source": "patent JP2008515970A",
  "biological_target": "ヒトVEGF (human) (UniProt P15692)",
  "sequence (P15692 other isoform, or with tags, fused parts or gaps limits assumed)": "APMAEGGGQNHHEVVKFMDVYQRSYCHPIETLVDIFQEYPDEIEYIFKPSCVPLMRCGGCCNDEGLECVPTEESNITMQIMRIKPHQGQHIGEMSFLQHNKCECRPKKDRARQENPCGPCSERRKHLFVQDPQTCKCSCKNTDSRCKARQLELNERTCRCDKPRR",
  "experiment": "cell-based or functional assay",
  "data": [
    {"substance": "VEGFR1−Fc−IL−1ra (Fc fusion)", "values": [
      {"measurement": "EC50 (inhibition of VEGF-dependent HUVE cell proliferation, VEGF 10 ng/ml)", "result": 15, "unit": "ng/mL"}
    ]}
  ]
}
